Test results reported in paper PMC9380774, “Mpe1 senses the binding of pre-mRNA and controls 3′ end processing by CPF” (Molecular Cell, 2022).

B3: Cft2(S), residues 1-720 (domain or fragment, S. cerevisiae, UniProt Q12102 1-720, looked up)
chain: MTYKYNCCDDGSGTTVGSVVRFDNVTLLIDPGWNPSKVSYEQCIKYWEKVIPEIDVIILSQPTIECLGAHSLLYYNFTSHFISRIQVYATLPVINLGRVSTIDSYASAGVIGPYDTNKLDLEDIEISFDHIVPLKYSQLVDLRSRYDGLTLLAYNAGVCPGGSIWCISTYSEKLVYAKRWNHTRDNILNAASILDATGKPLSTLMRPSAIITTLDRFGSSQPFKKRSKIFKDTLKKGLSSDGSVIIPVDMSGKFLDLFTQVHELLFESTKINAHTQVPVLILSYARGRTLTYAKSMLEWLSPSLLKTWENRNNTSPFEIGSRIKIIAPNELSKYPGSKICFVSEVGALINEVIIKVGNSEKTTLILTKPSFECASSLDKILEIVEQDERNWKTFPEDGKSFLCDNYISIDTIKEEPLSKEETEAFKVQLKEKKRDRNKKILLVKRESKKLANGNAIIDDTNGERAMRNQDILVENVNGVPPIDHIMGGDEDDDEEEENDNLLNLLKDNSEKSAAKKNTEVPVDIIIQPSAASKHKMFPFNPAKIKKDDYGTVVDFTMFLPDDSDNVNQNSRKRPLKDGAKTTSPVNEEDNKNEEEDGYNMSDPISKRSKHRASRYSGFSGTGEAENFDNLDYLKIDKTLSKRTISTVNVQLKCSVVILNLQSLVDQRSASIIWPSLKSRKIVLSAPKQIQNEEITAKLIKKNIEVVNMPLNKIVEFSTTI
notes: Cft2, S. cerevisiae, residues 1-720, lacks the disordered C-terminal region; also called Cft2(short); truncated version of Cft2; source: E. coli BL21 Star (DE3), purified (Ni-NTA, 3C cleavage, MonoQ, Superdex 200)

Key:
[1] = biological target: T1, S. cerevisiae polymerase module with an SII tag on Pfs2 (S. cerevisiae, UniProt Q06632 1-1357; P29468 1-568; P42841 1-465; P45976 1-327; Q06102 2-208); experiment: SEC; analytical, Superose 6 Increase 3.2/300, SEC 50 buffer (20 mM HEPES pH 8, 50 mM NaCl, 0.5 mM TCEP); 5 μM polymerase module or polymerase module-Cft2 complex, 15 μM Mpe1 or variant, 10 μM Cft2(S) or 720 μM yPIM peptide; with or without 10 μM precleaved CYC1 RNA; conditions: both partners purified
T1 construct: Cft1, S. cerevisiae; Pap1, S. cerevisiae; Pfs2, S. cerevisiae; Fip1, S. cerevisiae; Yth1, S. cerevisiae; That Construct B is the plasmid of this co-infection is surmised from the SII tag on Pfs2; also called Construct B (Cft1-Pap1-Pfs2-SII-Fip1-Yth1); source: Sf9, co-infected with a virus for untagged Cft2 and Ysh1; in lysate, and purified with Cft2 (Strep-Tactin, MonoQ); copies: + + + +

[2] = biological target: T1, S. cerevisiae polymerase module with an …; experiment: pull-down; Sf9 cells co-infected with viruses for the polymerase module (SII on Pfs2) and for untagged Cft2 and Ysh1; Strep-Tactin in Buffer A, then MonoQ; conditions: partners not purified
Cft1 = biological target: T2, Cft1 (S. cerevisiae, UniProt Q06632 1-1357); experiment: cryo-EM structure; sample of polymerase module, Mpe1, Cft2(S) and precleaved CYC1 RNA; only the polymerase module and the yPIM of Cft2 are seen in the map; conditions: both partners purified
T2 construct: Cft1, S. cerevisiae, subunit of the polymerase module of CPF; E. coli codon-optimized gene (GeneArt); source: Sf9, baculovirus, co-expressed with Mpe1-SII, in lysate; also as subunit of the purified polymerase module (Sf9)
T2 sequence: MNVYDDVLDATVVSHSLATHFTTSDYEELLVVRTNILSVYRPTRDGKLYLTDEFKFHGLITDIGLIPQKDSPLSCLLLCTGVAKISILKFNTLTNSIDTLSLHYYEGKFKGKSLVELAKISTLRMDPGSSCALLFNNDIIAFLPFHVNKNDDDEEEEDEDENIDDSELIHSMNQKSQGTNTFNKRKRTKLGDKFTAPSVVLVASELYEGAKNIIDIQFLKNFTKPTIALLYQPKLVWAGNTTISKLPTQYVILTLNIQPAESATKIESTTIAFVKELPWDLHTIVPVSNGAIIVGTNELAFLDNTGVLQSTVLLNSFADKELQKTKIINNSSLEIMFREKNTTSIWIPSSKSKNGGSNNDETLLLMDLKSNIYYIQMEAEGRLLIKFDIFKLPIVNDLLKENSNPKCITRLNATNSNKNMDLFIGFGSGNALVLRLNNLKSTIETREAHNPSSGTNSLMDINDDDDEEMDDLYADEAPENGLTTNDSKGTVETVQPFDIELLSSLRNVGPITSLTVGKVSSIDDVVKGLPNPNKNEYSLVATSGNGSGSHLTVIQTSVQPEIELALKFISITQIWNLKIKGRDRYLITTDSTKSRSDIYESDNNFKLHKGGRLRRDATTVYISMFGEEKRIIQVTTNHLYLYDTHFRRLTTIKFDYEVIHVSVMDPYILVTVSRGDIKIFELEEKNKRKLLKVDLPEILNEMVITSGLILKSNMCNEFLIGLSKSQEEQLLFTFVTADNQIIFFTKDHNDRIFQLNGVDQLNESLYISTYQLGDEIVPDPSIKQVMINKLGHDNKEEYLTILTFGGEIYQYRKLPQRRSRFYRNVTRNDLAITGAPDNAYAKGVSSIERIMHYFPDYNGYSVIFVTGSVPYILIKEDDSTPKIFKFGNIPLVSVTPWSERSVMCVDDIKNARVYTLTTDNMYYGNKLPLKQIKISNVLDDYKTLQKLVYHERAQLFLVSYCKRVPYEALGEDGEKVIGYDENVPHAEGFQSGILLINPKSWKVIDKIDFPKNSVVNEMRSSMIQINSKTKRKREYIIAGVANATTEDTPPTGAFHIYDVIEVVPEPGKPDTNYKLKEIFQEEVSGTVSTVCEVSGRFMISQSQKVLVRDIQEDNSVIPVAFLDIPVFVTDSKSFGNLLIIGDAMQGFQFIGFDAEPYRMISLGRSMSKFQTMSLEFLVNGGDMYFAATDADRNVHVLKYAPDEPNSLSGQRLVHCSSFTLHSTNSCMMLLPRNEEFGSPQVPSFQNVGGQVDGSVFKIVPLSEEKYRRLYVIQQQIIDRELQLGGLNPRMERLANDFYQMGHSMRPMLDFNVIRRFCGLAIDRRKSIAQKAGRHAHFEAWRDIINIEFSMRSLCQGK

Cft2(S), residues 1-720 [3] = biological target: B3; experiment: as above; conditions: both partners purified
Cft2(S), residues 1-720 [4] = biological target: B3; experiment: cross-linking; polymerase module-Cft2(S)-Mpe1-RNA complex (0.5 mg/ml) with 2 mM sulfo-SDA for 2 h on ice, UV 365 nm for 15 min; 20 mM HEPES, 50 mM NaCl, 0.5 mM TCEP, pH 8.0; mass spectrometry, 1 % FDR on link level; conditions: both partners purified

T1 sequence (P29468 whole entry, chain 2 of 2): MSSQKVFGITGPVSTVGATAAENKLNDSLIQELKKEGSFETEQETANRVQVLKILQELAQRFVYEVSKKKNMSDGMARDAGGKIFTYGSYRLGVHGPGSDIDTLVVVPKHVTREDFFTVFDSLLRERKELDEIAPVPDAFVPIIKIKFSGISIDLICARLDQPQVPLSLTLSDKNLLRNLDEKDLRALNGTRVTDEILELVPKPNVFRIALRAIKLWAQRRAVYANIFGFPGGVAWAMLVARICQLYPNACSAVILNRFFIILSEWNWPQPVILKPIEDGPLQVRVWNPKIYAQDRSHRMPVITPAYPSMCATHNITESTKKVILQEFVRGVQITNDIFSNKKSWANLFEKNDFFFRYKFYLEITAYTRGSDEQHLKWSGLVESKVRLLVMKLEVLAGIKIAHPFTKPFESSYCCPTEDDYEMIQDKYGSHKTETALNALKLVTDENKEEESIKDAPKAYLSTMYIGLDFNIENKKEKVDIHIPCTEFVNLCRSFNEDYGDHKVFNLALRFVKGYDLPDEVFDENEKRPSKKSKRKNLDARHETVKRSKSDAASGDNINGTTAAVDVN
T1 sequence (P45976 whole entry, chain 4 of 2): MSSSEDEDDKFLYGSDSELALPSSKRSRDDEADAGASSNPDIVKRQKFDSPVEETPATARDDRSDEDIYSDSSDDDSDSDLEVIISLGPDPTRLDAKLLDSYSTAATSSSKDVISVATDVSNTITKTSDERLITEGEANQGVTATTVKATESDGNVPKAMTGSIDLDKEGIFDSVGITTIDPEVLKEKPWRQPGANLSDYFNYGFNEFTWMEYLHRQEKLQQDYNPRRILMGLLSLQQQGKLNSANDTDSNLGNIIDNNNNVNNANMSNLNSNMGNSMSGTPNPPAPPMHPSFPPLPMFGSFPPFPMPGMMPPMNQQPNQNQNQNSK

B1: StrepII-tagged Mpe1 (Mpe1-SII) (natural protein, S. cerevisiae)
chain: MSSTIFYRFKSQRNTSRILFDGTGLTVFDLKREIIQENKLGDGTDFQLKIYNPDTEEEYDDDAFVIPRSTSVIVKRSPAIKSFSVHSRLKGNVGAAALGNATRYVTGRPRVLQKRQHTATTTANVSGTTEEERIASMFATQENQWEQTQEEMSAATPVFFKSQTNKNSAQENEGPPPPGYMCYRCGGRDHWIKNCPTNSDPNFEGKRIRRTTGIPKKFLKSIEIDPETMTPEEMAQRKIMITDEGKFVVQVEDKQSWEDYQRKRENRQIDGDETIWRKGHFKDLPDDLKCPLTGGLLRQPVKTSKCCNIDFSKEALENALVESDFVCPNCETRDILLDSLVPDQDKEKEVETFLKKQEELHGSSKDGNQPETKKMKLMDPTGTAGLNNNTSLPTSVNNGGTPVPPVPLPFGIPPFPMFPMPFMPPTATITNPHQADASPKK
notes: Mpe1, S. cerevisiae, subunit of the nuclease module of CPF; no cleavage is told; also called WT Mpe1; Mpe1-3C-SII; source: Sf9, baculovirus; in lysate, and purified (Strep-Tactin, MonoQ)
[1]
  binding result: binds

B2: Cft2 (untagged, co-expressed with the polymerase module) (natural protein, S. cerevisiae, UniProt Q12102 1-859, looked up)
chain: MTYKYNCCDDGSGTTVGSVVRFDNVTLLIDPGWNPSKVSYEQCIKYWEKVIPEIDVIILSQPTIECLGAHSLLYYNFTSHFISRIQVYATLPVINLGRVSTIDSYASAGVIGPYDTNKLDLEDIEISFDHIVPLKYSQLVDLRSRYDGLTLLAYNAGVCPGGSIWCISTYSEKLVYAKRWNHTRDNILNAASILDATGKPLSTLMRPSAIITTLDRFGSSQPFKKRSKIFKDTLKKGLSSDGSVIIPVDMSGKFLDLFTQVHELLFESTKINAHTQVPVLILSYARGRTLTYAKSMLEWLSPSLLKTWENRNNTSPFEIGSRIKIIAPNELSKYPGSKICFVSEVGALINEVIIKVGNSEKTTLILTKPSFECASSLDKILEIVEQDERNWKTFPEDGKSFLCDNYISIDTIKEEPLSKEETEAFKVQLKEKKRDRNKKILLVKRESKKLANGNAIIDDTNGERAMRNQDILVENVNGVPPIDHIMGGDEDDDEEEENDNLLNLLKDNSEKSAAKKNTEVPVDIIIQPSAASKHKMFPFNPAKIKKDDYGTVVDFTMFLPDDSDNVNQNSRKRPLKDGAKTTSPVNEEDNKNEEEDGYNMSDPISKRSKHRASRYSGFSGTGEAENFDNLDYLKIDKTLSKRTISTVNVQLKCSVVILNLQSLVDQRSASIIWPSLKSRKIVLSAPKQIQNEEITAKLIKKNIEVVNMPLNKIVEFSTTIKTLDISIDSNLDNLLKWQRISDSYTVATVVGRLVKESLPQVNNHQKTASRSKLVLKPLHGSSRSHKTGALSIGDVRLAQLKKLLTEKNYIAEFKGEGTLVINEKVAVRKINDAETIIDGTPSELFDTVKKLVTDMLAKI
notes: Cft2, S. cerevisiae, pseudo-nuclease subunit of the nuclease module of CPF; source: Sf9, co-infected with viruses for the polymerase module (Pfs2-SII) and Ysh1-Cft2; in lysate, and co-purified with the polymerase module (Strep-Tactin, MonoQ)
[2]
  binding result: binds

## B3
Cft1
  binding result: binds

B4: Pfs2 (natural protein, S. cerevisiae)
chain: MDGHNQNQYQNQNQIQQSQQPPLKKYVTQRRSVDVSSPYINLYYNRRHGLPNLVVEPETSYTIDIMPPNAYRGRDRVINLPSKFTHLSSNKVKHVIPAIQWTPEGRRLVVATYSGEFSLWNASSFTFETLMQAHDSAVTTMKYSHDSDWMISGDADGMIKIWQPNFSMVKEIDAAHTESIRDMAFSSNDSKFVTCSDDNILKIWNFSNGKQERVLSGHHWDVKSCDWHPEMGLIASASKDNLVKLWDPRSGNCISSILKFKHTVLKTRFQPTKGNLLMAISKDKSCRVFDIRYSMKELMCVRDETDYMTLEWHPINESMFTLACYDGSLKHFDLLQNLNEPILTIPYAHDKCITSLSYNPVGHIFATAAKDRTIRFWTRARPIDPNAYDDPTYNNKKINGWFFGINNDINAVREKSEFGAAPPPPATLEPHALPNMNGFINKKPRQEIPGIDSNIKSSTLPGLSI
notes: Pfs2, S. cerevisiae, subunit of the polymerase module of CPF; E. coli codon-optimized gene (GeneArt); source: Sf9, baculovirus, co-expressed with Mpe1-SII, in lysate; also as subunit of the purified polymerase module (Sf9)
Cft2(S), residues 1-720 [3]
  binding result: binds

B5: Yth1 (natural protein, S. cerevisiae)
chain: MSLIHPDTAKYPFKFEPFLRQEYSFSLDPDRPICEFYNSREGPKSCPRGPLCPKKHVLPIFQNKIVCRHWLRGLCKKNDQCEYLHEYNLRKMPECVFFSKNGYCTQSPDCQYLHIDPASKIPKCENYEMGFCPLGSSCPRRHIKKVFCQRYMTGFCPLGKDECDMEHPQFIIPDEGSKLRIKRDDEINTRKMDEEKERRLNAIINGEV
notes: Yth1, S. cerevisiae, subunit of the polymerase module of CPF; E. coli codon-optimized gene (GeneArt); source: Sf9, baculovirus, co-expressed with Mpe1-SII, in lysate; also as subunit of the purified polymerase module (Sf9)
Cft2(S), residues 1-720 [4]
  binding result: binds
